{"source": "patent US20050255117A1", "about": "(Biogen, published 2005)", "key": {"CR-Fc [1]": {"biological_target": "T1, CR-Fc (UniProt P13385 31-169)", "T1 construct": "not shown: Fc part; not described", "T1 sequence (looked up)": "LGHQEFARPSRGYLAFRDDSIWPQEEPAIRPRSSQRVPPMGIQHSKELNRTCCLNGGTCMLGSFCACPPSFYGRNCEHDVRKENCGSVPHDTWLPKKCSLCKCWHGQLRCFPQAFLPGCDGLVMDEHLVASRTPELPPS", "assay": "Biacore, competition format in solution"}, "LTβR-Fc": {"biological_target": "T2, LTβR-Fc (UniProt P36941 31-227)", "T2 construct": "Control protein on the Biacore chip; also called LT-beta receptor-Fc; control LTβR-Fc protein; not shown: Fc part; not described", "T2 sequence (P36941 31-227)": "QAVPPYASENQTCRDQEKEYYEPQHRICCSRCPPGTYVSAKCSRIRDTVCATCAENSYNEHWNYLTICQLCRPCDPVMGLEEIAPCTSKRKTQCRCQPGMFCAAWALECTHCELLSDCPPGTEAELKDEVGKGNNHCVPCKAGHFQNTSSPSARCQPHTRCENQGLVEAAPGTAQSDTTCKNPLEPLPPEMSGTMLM", "assay": "Biacore, Fc fusion protein immobilized on the chip", "description": "We also analyzed the Cripto-Activin B interaction using Biacore. We discovered that Activin B directly binds CR-Fc immobilized on a Biacore chip with a high intensity, but not to a control LTβR-Fc protein (FIG. 10). We also observed that Activin A binding to CR-Fc was negligible."}, "CR-Fc [2]": {"biological_target": "T1, CR-Fc", "assay": "ELISA, ligand coated on the plate, CR-Fc detected with anti-Fc-alkaline phosphatase", "protocol": "We discovered that Cripto binds directly to Activin B. We coated ELISA plates with purified Activin B, Activin A, TGFβ1, GDNF or BMP2 and incubated with CR-Fc. We then added anti-Fc antibody conjugated to alkaline phosphatase and monitored binding by adding an alkaline phosphatase substrate and developing. We observed that CR-Fc bound to wells containing Activin B, but not to Activin A or the other ligands (FIG. 8). In addition, we pre-incubated CR-Fc with Activin A or B in solution before adding to an Activin B coated plate and observed that only Activin B inhibited binding (FIG. 9)."}}, "data": [{"binder": "Activin B (ligand, UniProt P09529 293-407, looked up) GLECDGRTNLCCRQQFFIDFRLIGWNDWIIAPTGYYGNYCEGSCPAYLAGVPGSASSFHTAVVNQYRMRGLNPGTVNSCCIPTKLSTMSMLYFDDEYNIVKRDVPNMIVEECGCA", "values": [{"measurement": "Kd", "setting": "CR-Fc [1]", "value": "~1", "unit": "nM"}, {"measurement": "binding result", "setting": "LTβR-Fc", "value": "no binding"}]}, {"binder": "Activin A (ligand, UniProt P08476 311-426, looked up) GLECDGKVNICCKKQFFVSFKDIGWNDWIIAPSGYHANYCEGECPSHIAGTSGSSLSFHSTVINHYRMRGHSPFANLKSCCVPTKLRPMSMLYYDDGQNIIKKDIQNMIVEECGCS", "values": [{"measurement": "binding result", "setting": "CR-Fc [2]", "value": "no binding"}]}, {"binder": "GDNF (ligand, UniProt P39905 78-211, looked up) SPDKQMAVLPRRERNRQAAAANPENSRGKGRRGQRGKNRGCVLTAIHLNVTDLGLGYETKEELIFRYCSGSCDAAETTYDKILKNLSRNRRLVSDKVGQACCRPIAFDDDLSFLDDNLVYHILRKHSAKRCGCI", "values": [{"measurement": "binding result", "setting": "CR-Fc [2]", "value": "no binding"}]}, {"binder": "BMP2 (ligand, UniProt P12643 283-396, looked up) QAKHKQRKRLKSSCKRHPLYVDFSDVGWNDWIVAPPGYHAFYCHGECPFPLADHLNSTNHAIVQTLVNSVNSKIPKACCVPTELSAISMLYLDENEKVVLKNYQDMVVEGCGCR", "values": [{"measurement": "binding result", "setting": "CR-Fc [2]", "value": "no binding"}]}]}
